The values that follow come from PMC4599343 (Archives of biochemistry and biophysics, 2015).

Series [1] has as its target T1, CYP2B6 (Homo sapiens, UniProt P20813, Y226H/K262R).
T1 sequence (P20813 29-491 Y226H/K262R): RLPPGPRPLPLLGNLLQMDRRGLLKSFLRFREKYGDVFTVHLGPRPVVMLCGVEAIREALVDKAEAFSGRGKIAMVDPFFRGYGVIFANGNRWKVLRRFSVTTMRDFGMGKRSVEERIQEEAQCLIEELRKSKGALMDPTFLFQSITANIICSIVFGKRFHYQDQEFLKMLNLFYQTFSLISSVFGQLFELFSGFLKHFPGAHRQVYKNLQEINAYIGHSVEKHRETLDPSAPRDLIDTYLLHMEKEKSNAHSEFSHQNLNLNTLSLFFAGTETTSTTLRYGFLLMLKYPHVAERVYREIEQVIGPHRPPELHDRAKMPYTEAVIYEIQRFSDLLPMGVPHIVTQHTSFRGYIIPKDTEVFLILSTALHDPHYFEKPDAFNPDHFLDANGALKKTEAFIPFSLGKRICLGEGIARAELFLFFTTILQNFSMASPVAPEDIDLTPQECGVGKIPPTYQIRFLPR
The series is classed as biochemical. As to conditions: reconstituted purified enzyme.

Series [2] concerns the target T2, CYP2B6 (Homo sapiens, UniProt P20813, K262R/Y226H).
T2 sequence (P20813 29-491 Y226H/K262R): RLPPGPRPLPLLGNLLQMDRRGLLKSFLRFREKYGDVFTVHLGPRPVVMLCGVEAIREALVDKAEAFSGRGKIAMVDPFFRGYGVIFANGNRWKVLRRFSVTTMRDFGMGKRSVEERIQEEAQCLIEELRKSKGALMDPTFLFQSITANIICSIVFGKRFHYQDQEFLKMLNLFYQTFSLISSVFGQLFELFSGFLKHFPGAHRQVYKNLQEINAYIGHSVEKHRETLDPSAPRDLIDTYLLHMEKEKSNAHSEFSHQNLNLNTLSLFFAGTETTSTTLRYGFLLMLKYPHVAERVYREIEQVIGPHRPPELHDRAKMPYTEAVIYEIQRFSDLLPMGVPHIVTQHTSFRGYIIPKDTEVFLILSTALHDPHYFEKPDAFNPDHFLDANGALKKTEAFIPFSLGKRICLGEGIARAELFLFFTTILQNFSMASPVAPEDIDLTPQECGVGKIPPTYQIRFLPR
Kind of series: biochemical.

Substrate in series [3]: O=c1ccc2nc3ccc(OCc4ccccc4)cc3oc-2c1
Kind of series: steady-state O-debenzylation kinetics, reconstituted purified enzyme. As to conditions: heme. It counts as biochemical, Oryctolagus cuniculus.

Substrate in series [4]: CCOc1ccc2c(C(F)(F)F)cc(=O)oc2c1
Kind of series: steady-state O-deethylation kinetics, reconstituted purified enzyme. The series is classed as biochemical, Oryctolagus cuniculus. As to conditions: heme.

As to `CCOc1ccc2c(C(F)(F)F)cc(=O)oc2c1` [7-EFC, 7-ethoxy-4-(trifluoromethyl)coumarin], on CYP2B6 [1], the Km amounted to 6.2 ± 0.6 µM.

Consider `OC[C@H]1O[C@H](O[C@H]2[C@H](O)[C@@H](O)[C@H](OCCCCCC3CCCCC3)O[C@@H]2CO)[C@H](O)[C@@H](O)[C@@H]1O` [CYMAL-5, 5-cyclohexyl-1-pentyl-β-D-maltoside], for which inhibition on CYP2B6 [2] was half-maximal at 739 ± 42.5 µM (IC50).

B1: CYP2B4 (Oryctolagus cuniculus; H226Y) (protein)
chain: GRLPPGPSPLPVLGNLLQMDRKGLLRSFLRLREKYGDVFTVYLGSRPVVVLCGTDAIREALVDQAEAFSGRGKIAVVDPIFQGYGVIFANGERWRALRRFSLATMRDFGMGKRSVEERIQEEARCLVEELRKSKGALLDNTLLFHSITSNIICSIVFGKRFDYKDPVFLRLLDLFFQSFSLISSFSSQVFELFPGFLKYFPGTHRQIYRNLQEINTFIGQSVEKHRATLDPSNPRDFIDVYLLRMEKDKSDPSSEFHHQNLILTVLSLFFAGTETTSTTLRYGFLLMLKYPHVTERVQKEIEQVIGSHRPPALDDRAKMPYTDAVIHEIQRLGDLIPFGVPHTVTKDTQFRGYVIPKNTEVFPVLSSALHDPRYFETPNTFNPGHFLDANGALKRNEGFMPFSLGKRICLGEGIARTELFLFFTTILQNFSIASPVPPEDIDLTPRESGVGNVPPSYQIRFLAR
Regarding B1, in series [3], the Km came to 1.03 ± 0.22 µM, the kcat came to 0.03267 ± 0.000167 s⁻¹ and the specificity constant (kcat/Km) is 31700 M⁻¹ s⁻¹. Also, in series [4], the Km worked out at 28.4 ± 7.6 µM, the kcat is 0.123 ± 0.0217 s⁻¹ and the catalytic efficiency (kcat/Km) came to 4330 M⁻¹ s⁻¹.

The Km is the substrate concentration at which the rate is half of its maximum. One may read the IC50 as the midpoint of a concentration-inhibition curve. As a reminder, the kcat is the maximal rate divided by the concentration of active sites. The term kcat/Km denotes the second-order rate constant that governs catalysis at low substrate concentration.
